Experimental findings from publication PMC10902388 (Nature Communications, 2024) are described below.

Numbering of substitutions follows the chain as printed. Names and notes keep the numbering of the source.

In assay [1] the target is T1, full-length human E6AP (C-terminal TEV-6xHis-Avi) (human, UniProt Q05086 1-875, biotin on the Avi tag (BirA biotin-protein ligase) in the SPR experiments).
T1 construct: also called UBE3A; biotin-E6AP
The assay is described as follows: SPR. As to conditions: both partners purified.

For assay [2], the target named is T1, full-length human E6AP (C-terminal …). Kind of assay: cell-based or functional assay.

Usually Kd stands for the free concentration of one partner at which half of the binding sites on the other are occupied at equilibrium, for simple one-to-one binding. A high value points to lower affinity.

T1 sequence (Q05086 whole entry): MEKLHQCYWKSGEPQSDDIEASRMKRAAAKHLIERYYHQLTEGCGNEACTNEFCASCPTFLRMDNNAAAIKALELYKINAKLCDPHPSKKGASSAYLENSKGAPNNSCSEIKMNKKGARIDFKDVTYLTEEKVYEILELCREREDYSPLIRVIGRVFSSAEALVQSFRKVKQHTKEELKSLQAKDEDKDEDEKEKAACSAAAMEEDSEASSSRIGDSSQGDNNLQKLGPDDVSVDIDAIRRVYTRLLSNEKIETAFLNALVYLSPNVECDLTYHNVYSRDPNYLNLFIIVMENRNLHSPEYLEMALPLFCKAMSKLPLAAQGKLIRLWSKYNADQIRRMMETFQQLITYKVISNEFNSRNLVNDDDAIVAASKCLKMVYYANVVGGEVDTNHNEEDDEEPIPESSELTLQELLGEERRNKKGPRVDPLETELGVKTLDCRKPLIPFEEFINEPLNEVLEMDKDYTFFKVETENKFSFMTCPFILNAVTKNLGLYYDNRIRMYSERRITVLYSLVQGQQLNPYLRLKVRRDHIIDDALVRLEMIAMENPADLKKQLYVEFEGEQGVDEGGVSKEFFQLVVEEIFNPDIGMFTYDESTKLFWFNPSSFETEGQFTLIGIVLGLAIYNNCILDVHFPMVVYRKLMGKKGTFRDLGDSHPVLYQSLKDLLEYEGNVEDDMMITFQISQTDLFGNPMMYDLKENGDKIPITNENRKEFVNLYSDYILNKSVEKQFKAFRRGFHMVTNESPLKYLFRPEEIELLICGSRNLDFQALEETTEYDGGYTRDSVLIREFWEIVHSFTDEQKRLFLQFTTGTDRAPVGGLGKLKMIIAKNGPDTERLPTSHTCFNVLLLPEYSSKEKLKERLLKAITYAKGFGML

B1: MBP-16E6(4C4S) F76A (natural protein)
chain: MHQKRTAMFQDPQERPRKLPQLCTELQTTIHDIILECVYCKQQLLRREVYDFAFRDLCIVYRDGNPYAVCDKCLKAYSKISEYRHYSYSLYGTTLEQQYNKPLSDLLIRCINCQKPLSPEEKQRHLDKKQRFHNIRGRWTGRCMSCSRSSRTRRETQL
notes: Mutant of m2; source: E. coli BL21(DE3), purified (MBPTrap, SEC); not shown: MBP, N-terminal, kept
B1 registered a Kd in assay [1] of 8.5 nM. Further, in assay [2], the “unmodified E6AP remaining at 30 min, E6AP autoubiquitination” value (“unmodified E6AP remaining at 30 min” for short) worked out at 82% and the “unmodified p53 remaining at 30 min, in vitro ubiquitination of full-length p53” value (from here on “unmodified p53 remaining at 30 min”) turned out to be 59.5%.

B2: MBP-16E6(4C4S) L57A (natural protein)
chain: B1 chain with L57A, A76F
As for B2, in assay [2], the “unmodified E6AP remaining after 30 min, E6AP autoubiquitination” value (“unmodified E6AP remaining after 30 min” for short) came to 45.6%.

B3: MBP-16E6(4C4S) R84E (natural protein)
chain: B1 chain with A76F, R84E
notes: as for B1
In turn, B3 gave an equilibrium dissociation constant (Kd) in assay [1] of 195 nM. In addition, the “unmodified E6AP remaining after 30 min” value in assay [2] turned out to be 64.9%.

B4: MBP-16E6(4C4S) Y88A (natural protein)
chain: B1 chain with A76F, Y88A
notes: as for B1
The molecule B4 had a Kd in assay [1] of 5.4 nM. In assay [2], the “unmodified E6AP remaining at 30 min” value was found to be 21.2% and the “unmodified p53 remaining at 30 min” value came to 19.2%.

B5: MBP-16E6(4C4S) R84A (natural protein)
chain: B1 chain with A76F, R84A
notes: as for B1
Take B5: binding in assay [1] was put at a Kd of 34.4 nM. The “unmodified E6AP remaining after 30 min” value in assay [2] turned out to be 64.9%.

B6: MBP-16E6(4C4S) S89A (natural protein)
chain: B1 chain with A76F, S89A
notes: as for B1
B6: binding in assay [1] was characterised by a dissociation constant (Kd) of 1.71 nM. In assay [2], the “unmodified E6AP remaining at 30 min” value came out at 33.1% and the “unmodified p53 remaining at 30 min” value is 57.3%.

B7: MBP-16E6(4C4S) Y77A (natural protein)
chain: B1 chain with A76F, Y77A
notes: as for B1
B7 returned a Kd in assay [1] of 0.742 nM. In addition, in assay [2], the “unmodified E6AP remaining at 30 min” value was determined as 21.6% and the “unmodified p53 remaining at 30 min” value came to 22.4%.

B8: MBP-16E6(4C4S) R62A (natural protein)
chain: B1 chain with R62A, A76F
notes: as for B1
Turning to B8, the equilibrium dissociation constant (Kd) in assay [1] turned out to be 2.2 nM. Besides, the “unmodified E6AP remaining after 30 min” value in assay [2] turned out to be 9.3%.

B9: MBP-16E6(4C4S) Y86A (natural protein)
chain: B1 chain with A76F, Y86A
notes: as for B1
The molecule B9 returned a Kd in assay [1] of 6.3 nM. Further, in assay [2], the “unmodified E6AP remaining at 30 min” value is 56.5% and the “unmodified p53 remaining at 30 min” value was determined as 44.2%.
